Residue numbers refer to the chain shown, from its start.
B1: R5: rice EPSPS mutant, SEQ ID NO: 38, mutations S267(247)G and P116(101)S (protein)
chain: MASNAAAAAAKAEEIVLQPIREISGAVQLPGSKSLSNRILLLSALSEGTTVVDNLLNSEDVHYMLEALKALGLSVEADKVAKRAVVVGCGGKFPVEKDAKEEVQLFLGNAGTAMRSLTAAVTAAGGNATYVLDGVPRMRERPIGDLVVGLKQLGADVDCFLGTECPPVRVKGIGGLPGGKVKLSGSISSQYLSALLMAAPLALGDVEIEIIDKLISIPYVEMTLRLMERFGVKAEHSDSWDRFYIKGGQKYKSPGNAYVEGDASSAGYFLAGAAITGGTVTVQGCGTTSLQGDVKFAEVLEMMGAKVTWTDTSVTVTGPPREPYGKKHLKAVDVNMNKMPDVAMTLAVVALFADGPTAIRDVASWRVKETERMVAIRTELTKLGASVEEGPDYCIITPPEKLNITAIDTYDDHRMAMAFSLAACADVPVTIRDPGCTRKTFPNYFDVLSTFVRN
B2: R4: rice EPSPS mutant, SEQ ID NO: 36, mutation S267(247)G (protein)
chain: B1 chain with S116P
B3: R2: rice EPSPS mutant, SEQ ID NO: 32, merely containing the mutation P116(101)S; control (protein)
chain: B1 chain with G267S

Tested on: transgenic rice plants
Experiment: glyphosate resistance of the EPSPS mutant in transgenic rice plants sprayed with Roundup 41% ammonium glyphosate
Format: in vivo, rice (Nipponbare)
How it was run: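 EPSPS mutant genes were cloned into pGVP1 and introduced into Nipponbare rice embryo-derived calluses via Agrobacterium EHA105 (OD 0.2, 10 min infection, 2–3 days co-culture at 25 °C in the dark). Calluses went through recovery, two 14-day screening rounds at 30 °C, two differentiation rounds and rooting to regenerate transgenic plants.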

[1] = 1× dosage 1060 g/hectare glyphosate sprayed, recorded on 10th day
[2] = 2× dosage 2120 g/hectare sprayed to plants surviving 1×, recorded 10 days later
[3] = 5× dosage 5300 g/hectare sprayed to plants surviving 2×, recorded 10 days later
[4] = 20× dosage 21200 g/hectare sprayed to plants surviving 5×, recorded 10 days later

Row | Molecule | %++&+++ (percentage of plant having medium and high glyphosate resistance to the total number of plants observed) [1] | number of plants denoted by + (low glyphosate resistance) [1] | number of plants denoted by ++ (medium glyphosate resistance) [1] | number of plants denoted by +++ (high glyphosate resistance) [1] | number of plants denoted by − (no glyphosate resistance) [1] | glyphosate resistance / survival of the rice transformed by the EPSPS, in words (1× glyphosate dosage) | number of plants denoted by + (low glyphosate resistance) [2] | number of plants denoted by ++ (medium glyphosate resistance) [2] | number of plants denoted by +++ (high glyphosate resistance) [2] | number of plants denoted by − (no glyphosate resistance) [2] | glyphosate resistance / survival of the rice transformed by the EPSPS, in words (2× glyphosate dosage) | &++&+++ (percentage of plant having medium and high glyphosate resistance to the total number of plants observed) [3] | number of plants denoted by + (low glyphosate resistance) [3] | number of plants denoted by ++ (medium glyphosate resistance) [3] | number of plants denoted by +++ (high glyphosate resistance) [3] | number of plants denoted by − (no glyphosate resistance) [3] | &++&+++ (percentage of plant having medium and high glyphosate resistance to the total number of plants observed) [4] | number of plants denoted by + (low glyphosate resistance) [4] | number of plants denoted by ++ (medium glyphosate resistance) [4] | number of plants denoted by +++ (high glyphosate resistance) [4] | further results
1 | B1 | 84.2% | 0 | 6 | 10 | 3 | had relatively high resistance to glyphosate | 3 | 6 | 4 | 6 | had relatively high resistance to glyphosate | 42.1% | 3 | 8 | 0 | 8 | 0.0% | 8 | 0 | 0 | %++&+++ (percentage of plant having medium and high glyphosate resistance to the total number of plants observed) [2]: 63.3%; number of plants denoted by − (no glyphosate resistance) [4]: 11
2 | B2 | 66.7% | 46 | 62 | 44 | 7 | obviously superior to that of the rice seedlings transformed by R0 | 136 | 10 | 2 | 11 | some of the transgenic rice seedlings transformed by R1 and R4 still survived | 0.0% | 67 | 0 | 0 | 92 | 0.0% | 8 | 0 | 0 | glyphosate resistance / survival of the rice transformed by the EPSPS, in words (5× glyphosate dosage): some of the transgenic rice seedlings transformed by R1 and R4 still survived; number of plants denoted by − (no glyphosate resistance) [4]: 151; glyphosate resistance / survival of the rice transformed by the EPSPS, in words (20× glyphosate dosage): some of the transgenic rice seedlings transformed by R1 and R4 still survived
3 | B3 | 81.0% | 9 | 10 | 37 | 2 | had relatively high resistance to glyphosate | 17 | 18 | 14 | 9 | had relatively high resistance to glyphosate | 3.4% | 40 | 2 | 0 | 16 | 0.0% | 1 | 0 | 0 | %++&+++ (percentage of plant having medium and high glyphosate resistance to the total number of plants observed) [2]: 26.8%; number of plants denoted by − (no glyphosate resistance) [4]: 57
